From the nanobody polyreactivity screen of Harvey et al. (2022) come the findings set out here.

The nature of the data set: yeast display, Sf9 membrane polyspecificity reagent, FACS + sequencing; frameworks hold sequencing errors. The essentials: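 Sorting gates, low and high (top ~1%), were placed on anti-HA fluorescence to track expression and on streptavidin fluorescence to track reagent binding. A clone's polyreactivity label is taken from the gate it came out of. The reagent was 10% biotinylated, detergent-solubilized Sf9 membrane, applied for 1 hour at 4 °C to galactose-induced yeast display cells.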
Consider “QGQLVESGGGLVQAGGSLRLSCAASGNIFNRYGMGWSRQAPGKERELVAAISSSGTSPYYADSVKGRFTISRDYAKNTVYLQMNSLKPEDTAVYYCAASYPTRAWEYDYWGQGTQVTVSS”, for which the “polyreactivity (PSR sort gate)” value is given as “high polyreactivity”.
Turning to “QVQLVESGGGLVQAGGSLRLSCAASGRTFWVNAMGSYRQAPGKERELVATIRGSGVSTYYADSVKGRFTISRDNAKNTVYLQMNSLKPEDTAVYYCAAGFAGGYGVTFDYCGQGTQVTVSS”, the “polyreactivity (PSR sort gate)” value is “low polyreactivity”.
Take “QVQLVESGGGLVQAGGSLLLSCAASGITFPKYAMGWYRQAPGKERELVAAITKSGGSTYYADSVKGRFTISRDHAKNTVYFQMNSLKPEDTAVYYYAARPRYGEYDYWGQGTQVTVSS”: the “polyreactivity (PSR sort gate)” value is “high polyreactivity”.
With “QVQLVESGGGIVQAGGSLRLSCAASGRTFLGYAMGWYRQAPGKERELVAAISYSGSSTYYADSVKGRFTISRDNAKNTVYLQMNSLKPEDTAVYYCAAQFYFLFDYWGQGTQVTVSS”, the “polyreactivity (PSR sort gate)” value is reported as “low polyreactivity”.
Next, “QVQLVQSGGGLVQAGGSLRLSCAPSGSISTPYTMGWYRQAPGKERELVAAISWIGDTTSYADSVKGRYTISRDNAKNTVYLQMKSLKPEDTAVYYCDADYLWYNYAGQVDQDYDYWGQGTQVTVSS”: “low polyreactivity”; “QVQLVESGGGLVQAGGSLRLSCAASGRIFRGNAMGWFRQAPGKERELVASISTSGVRTFYADSVKGRFTISRDNAKNTVYLQMNSLKPEDTAVYDCNKRDRYRMYGFNYWGQGTQVTVSS”: “high polyreactivity”; “QVQLVESGGGLVQAGGSLRLSCAASGYIFSAYAMGWSRQAPGKERELVAVITSGGGTYYADSVKGRFTISRDNAKNTVYLLMNSLKTEDTAVYYCAAGPLCPYASRYGYWGQGTQVTVSS”: “high polyreactivity”.
Regarding “QVQLVESGGGLVQAGGSLRLSCAASGSTFFPNDKGWYRQAPGKERELVAAISWRGGNTYADSVKGLFTISRDNAKYTVYLQMNSLKPEDTAVYYCAAEFWYTYPYLVDYWGQGTLVTVSS”, the “polyreactivity (PSR sort gate)” value is reported as “low polyreactivity”.
Next, “QVQLVESGRGLVQAGGSLRLSCAASGSIFTTNAMGWYRQAPGKERELVAAISKSGASTYYADSVKGRVTISRDNAKNTVYLQMNSLKPEDTAVYYCAAGLRYTGRFRFYYWGQGTQVTVSS”: “high polyreactivity”.
Turning to “QVQLVESGGGLVQAGGSLRLSCAASGGTFRKNAMGWYRQAPGKERELVAAITKSGGSTYYADSVKGRFTISRDNAKNTVYLQMNSLKPEDTAVYYCNTYPGSTQPPYDYWGQGTQVTVSS”, the “polyreactivity (PSR sort gate)” value is listed as “low polyreactivity”.
For the sequence “QVQLVESGGGLVQAGGSLRLSCAASGSTFFTYAMGWYRQAPGKERELVAAISWSGGTTYYADSVKGRFTISRDNAKNTVYLQMNSLKPEDTAVYYCASDRDGILKANDYWGQGTQVTVSS”, the “polyreactivity (PSR sort gate)” value is reported as “low polyreactivity”.
In the case of “QVQLVESGGGLVQAGGSLRLSCAASGRTFQYYAMGWNRQAPGKERELVAAISQDGGSTYYADSVKGRFTISRDNAKHSVYLQMNSLKPEDTAVYYCDAEVWRSYGYWGQGTQVTVSS”, the “polyreactivity (PSR sort gate)” value is “low polyreactivity”.
The entry for “QVQLVESGGGLVQAGGSLRLSCAASGRIFERNAMGGDRQAPGKEREFVAASSWSGGSTHYADSVKGRFTSSRDNAKNTVYVQMNSLKPEDTAVYFCAARRRKAGRPSDRYYYWGQGTQVTVSS” is “high polyreactivity”; for “QVHLVESGGGLVQAGGSLRLSCAASGFTIAFNAMGSYRQAPGKERELVASITGGGSTNYADSVKGRFTISRDNAKNTVYLQMNSLKPEDTAVYYCAARYFWAWERDLFLEFDYWGQGTQVTVSS” it is “low polyreactivity”; for “QVQLVESGGGLVQAGGSLRLSCAASGRIFAAYAMGWYRQAPGKERELVAAISWSGANTYYADSVKGRFTISRDNAKNTVYLQMNSLKPEDTAVYYCATLSKSYGVRRYKSDYWGQGTQVTVSS” it is “high polyreactivity”.
For the sequence “QVQLVESGGGLVQAGGSLRISCAASGRISVVNAMGWYRQAPGKEREMVAAIRRASTNYADSVKGRFTISRDNAKNTVYLQMNSLKPEDTAVYFCAARVYGINIFEYWGQGTQVTVSS”, the “polyreactivity (PSR sort gate)” value is listed as “high polyreactivity”.
As to “QVQLVESGGGLVQAGGSLRLSCAASGLTFYYNAMGWYRQAPGKERELVAAISRSGGSTYYADSVKGRFTISRDNAKNTVYLQMNSLEPEDTAVYYCAAALRKEYDYWGQGTQVTVSS”, the “polyreactivity (PSR sort gate)” value is listed as “high polyreactivity”.
In the case of “QVQHVESGGGLVQAGGSLRLSCAASGRIFSGYAMGWYRQAPGKERELVAAINRSGGSTYYADSVKGRFTISRDNAKNTVYLQMNSLKPDDTAVYYCAADKSDVYGYFRQSESYGYWGQGTQVTVSS”, the “polyreactivity (PSR sort gate)” value is “low polyreactivity”.
Regarding “QVQLVESGGGLVQAGGSLRLSCAASGSTFTVYAMGWYRQAPGKERELVAAISESGTSTYYADSVKGRFTISRDNAKNTVYLQMNSLNPEDTAVYYCAADGPGTSEDDYWGQGTQVTVSS”, the “polyreactivity (PSR sort gate)” value is reported as “high polyreactivity”.
“QVQLVESGGGLVQAGGSLRLSCAASGRTFTVYAMGWYRQAPGKERELVAAISSGGITYYADSVKGRFTISRDNAKNTVYLQMNSLKPEDTAVYYCNTKSGKARYVFGYWGQGTQVTVSS”: the “polyreactivity (PSR sort gate)” value is reported as “low polyreactivity”.
Take “QVQLVESGGGLVQAGGSLRLSCAASGIILRYYAMGWYRQAPGKEREMVAAISYSGGRTYYADSVKGRFTISRDNAKNTVYLQMNSLKPEDTAVYYCAADYGYRIIASYDYWGQGTQVTVSS”: the “polyreactivity (PSR sort gate)” value is “high polyreactivity”.
Take “QLQLVESGGGLVQAGGSLPLTCAASGRTFARNAMGWYRQAPGKERELVARISRRAGSTYYADSVKGRFTISRDNAKNTVYLQMNSLKPAETAVYYCNAGPPYSYARDYWGQGTQVTVSS”: the “polyreactivity (PSR sort gate)” value was “high polyreactivity”.
Next, “QVQHVESGGGLVQAGGSLRLSCAASGRIFAYNAMGWYRQAPGKERELVADISSGGNTYYADSVKGRFTISRDNAKNTVYLQMNSLKPEDTAVYYCAADIALYTHYHRIFDYWGQGTQVTVSS”: “low polyreactivity”; “QVQLVESGGGLVQAGGSLRLSCAASGSIFHYNAMGWYIQAPGKERELVASISSGGRTYYADSVKGRFTISRDNAKNTVYLQMNSLKPEDTAVYYCAAENFWQTKEYDYWGQGTQVTVSS”: “low polyreactivity”; “QVQLVESAAGLVQAGGSHRLSCAASGFTFDHYAMGWSRQEPGKESELVAAISKRGGTTYYADSVKGRFTISRDNAKNTVYLQTKSLKPEDTAVYYCNADVNNWEDDYYYWGQGTQVTVSS”: “high polyreactivity”.
Regarding “QVQLVESGGGLVQAGGSLRLSCAASGSTCGTNAMGWYRQAPGKERELVAAITWSGGRTYYADSVKGRFTISRDNAKNTVYLQMISLKPEDTAVYYCNAGYSYRRRNGYGYDYWGQGTQVTVSS”, the “polyreactivity (PSR sort gate)” value is reported as “high polyreactivity”.
Consider “QLQLVESVGVLVQAGGSLRLSCAASGFIFDGYAMGWYRQAPGKERELVAAIDSGGDRTYYADSVKGRFTISRDNAKNTVYLQMNSLKPEDTAVYYCARTFRTYAPRPYQGDYWGQGTQVTVSS”, for which the “polyreactivity (PSR sort gate)” value is on record as “low polyreactivity”.
For “QVQLVESGGGLVQAGGSLRLSCAASGSIFRAYAMGWYRQAPGKERELVAAINWTDGSTYYADSVKGRFTISRDKAKNTVYLQMNSLKPEDTAVYYCAKDSIARHNYWGQGTQVTVSS”, the “polyreactivity (PSR sort gate)” value is “low polyreactivity”.
For “QVQLVESGGGLVQAGGSLRLSCAASGSIFVQYAMGWYRQAPGKERELVAAITRRAGSTYYADSVKGRFTISRDNAKNTVYLQMNSLKPEDTAVYYCAAGYRYRYTRDIWYEYWGQGTQVTVSS”, the “polyreactivity (PSR sort gate)” value is given as “high polyreactivity”.
As to “QVQLVESGGGLVQAGGSLRLSCAASGSTFPPNGMGWYRQAPGKERELVAAIRWRGGSTYYADSVKGRFTISRDNAKNTVYLQMNSLKPEDTAVYYCAKYVTYSRPTNSPSGKHVYWGQGTQVTVSS”, the “polyreactivity (PSR sort gate)” value was “low polyreactivity”.
The entry for “QVQLVESGGGLVQAGGSLRLSCAASGITFPWYAMGWYIQAPGKERELVAAISFSGGSTYYADSVKWRFTISRDNAKNTVYLQMNCLKPVDTAVYYCAAVDGYSYIYAAGDYWGQGTQVTVSS” is “low polyreactivity”; for “QVQLVESGGGLVQAGGSLRLSCAASGRTFFPNAMGWYRQAPGKERELVAAISSGGGGTYYADSVKGRFTISRDNAKNTVYLQMISLKPEDTAVYYCAARNSKVEEEGNYWGQGTQVTVSS” it is “low polyreactivity”; for “QVHLQESGAGLEQAGGSLRLSCAASGYISDIGTMGCYRQAPGKEREFVATIVVGSTTNYADSVKGRFTISRDNAKNTLYLQPESGRYRGVLLRGWLLAVGKFTYWGQGTQETVSS” it is “low polyreactivity”.
In the case of “QVQLVESGGGLVQAGGRLRLSSDASGLTFPTNAMGRYRQAHGKETEFVAAITSRGGTTYYADSVKGRFTISRDNAKNTVYLQMNSLKPEDTAVYYCAALSVTIYQSYRYGYWGQGTQVTVSS”, the “polyreactivity (PSR sort gate)” value is on record as “low polyreactivity”.
As to “QVQLVESGGGLVQAGGSLRLTCAATGIIFSYYAKGWYRQAPGKERELVAAISWGGGSTFYADSVKGRFTISRDNAKKTVSLQMKSLKPEDNAVLFCDADYGGDFGMDYCGQGTQVTVSS”, the “polyreactivity (PSR sort gate)” value is given as “low polyreactivity”.
“QVQLVESGGGLVQAGGSLRLSCAASGSIVVWNDMGWYRQAPGTEREFVAAITSRDGSTYYADSVKGRFTISRDNAKNTVYLQMNSLKPEDTAVYYCAARLRVTVFYSRTRYYWGQGTQVTVSS”: the “polyreactivity (PSR sort gate)” value is recorded as “low polyreactivity”.
Take “QVQLVESCGGLVQAGGSLRLSCAASGIIFRYYAMGWYRQAPGKEREFVASINFSGSSTYYADSVKGRFTISRDNAKNSVYLQMKSLKPEDTAVYYCAAGRRWLYDYWGQGTQVTVSS”: the “polyreactivity (PSR sort gate)” value is “high polyreactivity”.
For the sequence “QVQLVESGGGLVQAGGRLRVSCAASGFTFNCYTMGGSRQAPGKERELVAAITWSGGSTYYADSVKGRFTISRDNAKNSVYLQMNSLIPEDTAVYYCAVYPYGSQYYALDYWGQGTQVTVSS”, the “polyreactivity (PSR sort gate)” value is “high polyreactivity”.
For “QVQLVESGGGLVQAGGSLRLSCAASGSTYYRYDMGWYRQAPGKERELCAAINWNGGTTYYADSVKGRFTISRDNAKNNVYLQMNSLKPEDTAVYYCTARSNSYVYPRLYNYWGQGTQVTVSS”, the “polyreactivity (PSR sort gate)” value is “high polyreactivity”.
Regarding “QDQLVESGGGLVQAGGSLRLSCAASGRIFRTYAMGWYRQAPRQERELVAAIRSGGSTKYADSVKGRFTISRDNAKNTVYLQMKSLKPEDTAVYYCAAAVLGRYSAGDGYWGQGTQVTVSS”, the “polyreactivity (PSR sort gate)” value is on record as “low polyreactivity”.
With “QVQLVESGGGLVQAGGSLRLSCAASGFTFLYNAMGWYRQAPGKERELVASINSGGSTNYADSVKGRFTISRDKSKNTVYLQMNRLKPEDTAVYYCNAKRHVRKGDYGGQGTQVTVSS”, the “polyreactivity (PSR sort gate)” value is “low polyreactivity”.
